This note sets out measurements from article PMC3763537.

The Kd is the constant that tells how readily two partners part at equilibrium. Higher therefore signals lower affinity. In general, stoichiometry N refers to the number of molecules, sites or subunits per partner or assembly.

Assay [1] deals with NprR(ΔHTH) (B. thuringiensis strain 407). Kind of assay: ITC. (In ITC the heat of successive injections is recorded.)
Assay [2] has as its target full-length NprR (B. thuringiensis strain 407). Kind of assay: SEC-MALS. On the technique in general: Size exclusion chromatography separates by hydrodynamic size, large species first.
Assay [3] has the same target. As to the kind of experiment: dynamic light scattering.
Assay [4] shares this target. Kind of assay: dynamic light scattering. This is another data set of the same source.
The target is the same in assay [5]. Kind of assay: SEC.
Assay [6] has as its target NprR(ΔHTH)(Y223A/F225A) (B. thuringiensis strain 407). As to the kind of experiment: SEC.
Assay [7] concerns the target NprR(ΔHTH) (B. thuringiensis strain 407). Kind of assay: SEC-MALS.
Assay [8] shares this target. As to the kind of experiment: dynamic light scattering.
For assay [9] the target is unchanged. As to the kind of experiment: crystal structure.
Assay [10] has the same target. As to the kind of experiment: dynamic light scattering. The source holds these as a separate data set.
Assay [11] has the same target. Kind of assay: SEC.
Assay [12] shares this target. As to the kind of experiment: SEC. The source holds these as a separate data set.
Assay [13] deals with NprR(ΔHTH)(Y223A/F225A) (B. thuringiensis strain 407). As to the kind of experiment: ITC.
Assay [14] has as its target NprR(ΔHTH)(N407A/Y410A) (B. thuringiensis strain 407). As to the kind of experiment: ITC.
Assay [15] deals with NprR(ΔHTH)(R126A) (B. thuringiensis strain 407). As to the kind of experiment: ITC.

NprX7 variant SKPDIVG-CO-NH (peptide): the Kd in [1] was 5500 nM.
full-length NprR (natural protein): the stoichiometry N in [2] amounted to 2; in assay [3], 4; in assay [4] it was 2; in assay [5], 2.
Regarding “NprR(ΔHTH)(Y223A/F225A) (domain or fragment)”, the stoichiometry N in [6] was 2.
Take NprR(ΔHTH) (domain or fragment): the stoichiometry N in [7] is 2; in assay [8], 4; in assay [9] it was 4; in assay [10], 2; in assay [11], 2; in [12], 2.
On to NprX7 heptapeptide SKPDIVG, for which the Kd in assay [13] came out at 100 nM; in assay [14], 100 nM; in assay [1], 100 nM; in [15] it was 640 nM.
SRPDVLT [NprX7-IV (SRPDVLT)]: the Kd in assay [1] is 6000 nM.
For SNPDIYG [NprX7-III (SNPDIYG)], the Kd in assay [1] is 80 nM.
YSSKPDIVG [NprX9n …] registered a dissociation constant Kd in [1] of 220 nM.
In the case of SKPDTYG [NprX7-II (SKPDTYG)], the Kd in assay [1] worked out at 400 nM.
In assay [1], WKPDTLG [NprX7 peptide (WKPDTLG) characteristic of groups V to VII] showed a Kd of 3000 nM.
As to SSKPDIVG [NprX8n octapeptide SSKPDIVG], the Kd in assay [1] was 30 nM.
In assay [1], SKPDIVGQ [NprX8c SKPDIVGQ] returned a Kd of 1000 nM.
